Source: US20230056252A1 (Gilead, published 2023)
Substitutions are numbered along the chain they refer to.

B1: hPGT121.66 AAS + W/huSP34.3.8 scFv AAS + SAV + R (bispecific antibody, human IgG1, lambda, L234A L235A)
chain: EVQLVESGGGLVQPGGSLRLSCAASGFTFNTYAMNWVRQAPGKGLEWVGRIRSKYNNYATYYADSVKGRFTISRDDSKNSLYLQMNSLRTEDTAVYYCVRHGNFGHSYVSWFAYWGQGTLVTVSSGGGGSGGGGSGGGGSGGGGSQAVVTQEPSLTVSPGGTVTLTCGSSTGAVTTGHYANWVQQKPGQAPRGLIGGTNKRAPGVPARFSGSLLGGKAALTISGAQPEDEAEYYCALWYSNRWVFGGGTKLTVLEPKSSDKTHTCPPCPAPEAAGGPSVFLFPPKPKDTLMISRTPEVTCVVVDVSHEDPEVKFNWYVDGVEVHNAKTKPREEQYNSTYRVVSVLTVLHQDWLNGKEYKCKVSNKALPASIEKTISKAKGQPREPQVYTLPPSREEMTKNQVSLSCAVKGFYPSDIAVEWESNGQPENNYKTTPPVLDSDGSFFLVSKLTVDKSRWQQGNVFSCSVMHEALHNRYTQKSLSLSPGK
heavy: QMQLQESGPGLVKPSETLSLTCSVSGASISDSYWSWIRRSPGKGLEWIGYVHKSGDTNYNPSLKSRVHLSLDTSKNQVSLSLTGVTAADSGKYYCARTLHGRRIYGIVAFNEWFTYFYMDVWGTGTQVTVSSASTKGPSVFPLAPSSKSTSGGTAALGCLVKDYFPEPVTVSWNSGALTSGVHTFPAVLQSSGLYSLSSVVTVPSSSLGTQTYICNVNHKPSNTKVDKKVEPKSCDKTHTCPPCPAPEAAGGPSVFLFPPKPKDTLMISRTPEVTCVVVDVSHEDPEVKFNWYVDGVEVHNAKTKPREEQYNSTYRVVSVLTVLHQDWLNGKEYKCKVSNKALPASIEKTISKAKGQPREPQVYTLPPSREEMTKNQVSLWCLVKGFYPSDIAVEWESNGQPENNYKTTPPVLDSDGSFFLYSKLTVDKSRWQQGNVFSCSVMHEALHNHYTQKSLSLSPGK
light: not shown
B2: hPGT121.66 AAS + W/huSP34.34.3 scFv AAS + SAV + R (bispecific antibody, human IgG1, lambda, L234A L235A)
chain: not shown
heavy: B1 heavy
light: not shown
B3: hPGT121.66 AAS + W/huSP34.34.11 scFv AAS + SAV + R (bispecific antibody, human IgG1, lambda, L234A L235A)
chain: B1 chain with D64A, R89K, V95M, I222L, R242L
heavy: B1 heavy
light: not shown
B4: hPGT121.66 AAS + W/huSP34.34.12 scFv AAS + SAV + R (bispecific antibody, human IgG1, lambda, L234A L235A)
chain: B1 chain with D64A, R89K, V95M, E152P, G204W, V205T, L214S
heavy: B1 heavy
light: not shown
B5: hPGT121.66 AAS + W/huSP34.40.13 scFv AAS + SAV + R (bispecific antibody, human IgG1, lambda, L234A L235A)
chain: B1 chain with T60A, G68S, N199S, K200N
heavy: B1 heavy
light: not shown
notes: also called 276; bispecific 276
B6: hPGT121.66 AAS + W/huSP34.41.13 scFv AAS + SAV + R (bispecific antibody, human IgG1, lambda, L234A L235A)
chain: B1 chain with R19S, G68S, N199S, K200N
heavy: B1 heavy
light: not shown
B7: hPGT121.66 AAS W/huSP34.39.13 scFv AAS + SAV + R (bispecific antibody, human IgG1, lambda, L234A L235A)
chain: B1 chain with G68S, Q84E, N199S, K200N
heavy: B1 heavy
light: not shown
B8: hPGT121.66 AAS + W/huSP34.13.8 scFv AAS + SAV + R (bispecific antibody, human IgG1, lambda, L234A L235A)
chain: B1 chain with N30S, D64A, S80T
heavy: B1 heavy
light: not shown
notes: also called 261; bispecific 261
B9: hPGT121.66 AAS + W/huSP34.3.13 scFv AAS + SAV + R (bispecific antibody, human IgG1, lambda, L234A L235A)
chain: B1 chain with N199S, K200N
heavy: B1 heavy
light: not shown
B10: h3BNC117.52.64 AAS + SAV + YTE/huSP34.3.13 scFv AAS + W + YTE (bispecific antibody, human IgG1, kappa, L234A L235A)
chain: B1 chain with N199S, K200N, M291Y, S293T, T295E, S405W, A407L, V446Y, R474H
heavy: QVQLLQSGAAVTKPGASVRVSCEASGYNIRDYFIHWWRQAPGQGLQWVGWINPKTGQPNNPRQFQGRVSLTRHASFDFDTFSFYMDLKALRSDDTAVYFCARQRSDYWDFDVWGSGTQVTVSSASTKGPSVFPLAPSSKSTSGGTAALGCLVKDYFPEPVTVSWNSGALTSGVHTFPAVLQSSGLYSLSSVVTVPSSSLGTQTYICNVNHKPSNTKVDKKVEPKSCDKTHTCPPCPAPEAAGGPSVFLFPPKPKDTLYITREPEVTCVVVDVSHEDPEVKFNWYVDGVEVHNAKTKPREEQYNSTYRVVSVLTVLHQDWLNGKEYKCKVSNKALPASIEKTISKAKGQPREPQVYTLPPSREEMTKNQVSLSCAVKGFYPSDIAVEWESNGQPENNYKTTPPVLDSDGSFFLVSKLTVDKSRWQQGNVFSCSVMHEALHNHYTQKSLSLSPGK
light: DIQMTQSPSSLSASVGDTATITCQANGYLNWYQQRRGKAPKLLIYDGSKLERGVPSRFSGRRWGQEYNLTINNLQPEDIATYFCQVYEFVVPGTRLDLKRTVAAPSVFIFPPSDEQLKSGTASVVCLLNNFYPREAKVQWKVDNALQSGNSQESVTEQDSKDSTYSLSSTLTLSKADYEKHKVYACEVTHQGLSSPVTKSFNRGEC
B11: hCD4D1.22 Fc AAS + W + YTE/huSP34.39.13 AAS + SAV + R (bispecific antibody, human IgG1, lambda, L234A L235A)
chain: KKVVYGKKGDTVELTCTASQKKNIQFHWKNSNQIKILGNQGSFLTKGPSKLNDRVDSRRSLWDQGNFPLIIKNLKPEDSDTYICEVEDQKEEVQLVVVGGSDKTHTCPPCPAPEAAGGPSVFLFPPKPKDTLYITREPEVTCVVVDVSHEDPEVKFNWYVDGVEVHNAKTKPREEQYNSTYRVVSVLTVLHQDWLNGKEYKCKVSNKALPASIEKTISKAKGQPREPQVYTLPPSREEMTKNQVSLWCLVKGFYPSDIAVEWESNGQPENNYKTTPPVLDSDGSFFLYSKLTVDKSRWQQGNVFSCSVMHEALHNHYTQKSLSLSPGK
heavy: EVQLVESGGGLVQPGGSLRLSCAASGFTFNTYAMNWVRQAPGKGLEWVGRIRSKYNNYATYYADSVKSRFTISRDDSKNSLYLEMNSLRTEDTAVYYCVRHGNFGHSYVSWFAYWGQGTLVTVSSASTKGPSVFPLAPSSKSTSGGTAALGCLVKDYFPEPVTVSWNSGALTSGVHTFPAVLQSSGLYSLSSVVTVPSSSLGTQTYICNVNHKPSNTKVDKKVEPKSCDKTHTCPPCPAPEAAGGPSVFLFPPKPKDTLMISRTPEVTCVVVDVSHEDPEVKFNWYVDGVEVHNAKTKPREEQYNSTYRVVSVLTVLHQDWLNGKEYKCKVSNKALPASIEKTISKAKGQPREPQVYTLPPSREEMTKNQVSLSCAVKGFYPSDIAVEWESNGQPENNYKTTPPVLDSDGSFFLVSKLTVDKSRWQQGNVFSCSVMHEALHNRYTQKSLSLSPGK
light: QAVVTQEPSLTVSPGGTVTLTCGSSTGAVTTGHYANWVQQKPGQAPRGLIGGTSNRAPGVPARFSGSLLGGKAALTISGAQPEDEAEYYCALWYSNRWVFGGGTKLTVLGQPKAAPSVTLFPPSSEELQANKATLVCLISDFYPGAVTVAWKADSSPVKAGVETTTPSKQSNNKYAASSYLSLTPEQWKSHRSYSCQVTHEGSTVEKTVAPTECS
notes: also called 180; bispecific 180
B12: hCD4D1.22 Fc AAS + W + YTE/huSP34.40.13 AAS + SAV + R (bispecific antibody, human IgG1, lambda, L234A L235A)
chain: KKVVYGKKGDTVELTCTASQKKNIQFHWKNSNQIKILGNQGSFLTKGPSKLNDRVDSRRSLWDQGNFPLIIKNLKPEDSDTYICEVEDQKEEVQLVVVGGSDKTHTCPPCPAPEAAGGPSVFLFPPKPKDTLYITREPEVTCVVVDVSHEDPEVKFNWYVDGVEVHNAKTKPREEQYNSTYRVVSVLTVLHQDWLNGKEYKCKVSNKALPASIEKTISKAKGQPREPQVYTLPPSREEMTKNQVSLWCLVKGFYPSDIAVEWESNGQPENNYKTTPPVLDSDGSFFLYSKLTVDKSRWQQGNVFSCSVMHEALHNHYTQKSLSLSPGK
heavy: B11 heavy with T60A, E84Q
light: B11 light
notes: also called 188; bispecific 188
B13: hCD4D1.22 Fc AAS + W + YTE/huSP34.41.13 AAS + SAV + R (bispecific antibody, human IgG1, lambda, L234A L235A)
chain: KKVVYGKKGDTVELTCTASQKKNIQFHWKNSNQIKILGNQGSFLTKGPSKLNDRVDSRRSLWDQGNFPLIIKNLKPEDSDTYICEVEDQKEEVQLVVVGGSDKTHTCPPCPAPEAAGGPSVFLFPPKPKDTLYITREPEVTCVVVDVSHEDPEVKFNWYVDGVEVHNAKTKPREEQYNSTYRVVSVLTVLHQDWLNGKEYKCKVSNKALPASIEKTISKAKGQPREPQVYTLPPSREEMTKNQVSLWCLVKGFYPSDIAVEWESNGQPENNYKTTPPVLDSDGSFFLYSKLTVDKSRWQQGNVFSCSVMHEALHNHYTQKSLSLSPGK
heavy: B11 heavy with R19S, E84Q
light: B11 light
B14: huSP34.7.6 Fab-HF (Fab, V domains shown)
VH: EVQLVESGGGLVQPGGSLRLSCAASGFTFSDYAMNWVRQAPGKGLEWVGRTRSKYNNYATYYAASVKGRFTISRDDSKNSLYLQMNSLKTEDTAVYYCVRHGNFGNSYVSWFAVWGQGTLVTVSS
VL: QAVVTQPPSLTVSPGGTVTLTCGSSTGAVTTGHYANWVQQKPGQAPRGLIGGTSNRAPGVPARFSGSLSGGKAALTISGAQPEDEAEYYCALWYSARWVFGGGTKLTVL
B15: huSP34.9.6 Fab-HF (Fab, V domains shown)
VH: B14 VH with N57S
VL: B14 VL
B16: huSP34.10.6 Fab-HF (Fab, V domains shown)
VH: B14 VH with N57S, N106H
VL: B14 VL

Legend:
[1] = target: T1, biotinylated CD3 epsilon:delta heterodimer protein (Amsbio AMS.CDD-H52WO) (Homo sapiens (Human), UniProt P07766 23-126; P04234 22-105); experiment: BLI (Octet), CD3 on SA sensor, bispecific analyte
T1 construct: also called CD3 heterodimer

[2] = target: T2, biotinylated Human CD3E and CD3D (Acro Biosystems Cat CDD-H82W1) (human, UniProt P07766 23-126; P04234 22-105); experiment: SPR (Biacore 4000), CD3 captured on streptavidin chip;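 note: bispecific antibodies or Fabs injected at several concentrations over CD3 surfaces of varying density, sensorgrams fitted with a simple kinetic model to obtain association, dissociation and equilibrium constants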
T2 construct: also called biotinylated CD3

[3] = target: T3, CD3 expressed on cell-surface of primary human T cells (human, UniProt P07766 23-207; P04234 22-171); experiment: flow cytometry competition vs murine SP34-AF488 on human T cells, n = 1
T3 construct: also called cell-surface CD3; human CD3

Binder	Kd [1] [nM]	koff [1] [s⁻¹]	kon [1] [M⁻¹ s⁻¹]	Kd [2] [nM]	koff [2] [s⁻¹]	kon [2] [M⁻¹ s⁻¹]	IC50 [3] [µg/mL]
B1	7.1	0.000475	66600	2.5	0.0071	2.8e+06	
B2	10.3	0.00619	620000	43	0.017	390000	
B3	16	0.00172	116000	3.9	0.0129	3.3e+06	
B4	9.9	0.00431	433000	32	0.0119	370000	
B5				1.8	0.0063	3.6e+06	
B6				2.8	0.0085	3e+06	
B7				2.6	0.009	3.4e+06	
B8	20.8	0.000947	48500				
B9	16.8	0.00171	106000	2.4	0.0084	3.6e+06	
B10				2.7	0.0087	3.3e+06	
B11				2.5	0.0049	2e+06	
B12				1.6	0.0036	2.2e+06	
B13				2	0.0047	2.4e+06	
B14							> 20
B15							> 20
B16							> 20
